Here are results for 41 sequences from the nanobody polyreactivity screen of Harvey et al. (2022).

This data set in a line: yeast display, Sf9 membrane polyspecificity reagent, FACS + sequencing; frameworks hold sequencing errors. The gist of the method: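 A nanobody's polyreactivity label depends on the gate it was sorted from. Yeast display cells were stained with 10% biotinylated, detergent-solubilized Sf9 membrane reagent for 1 hour at 4 °C, enriched on streptavidin microbeads and sorted by FACS. The low and high (top ~1%) gates were set on anti-HA fluorescence for expression and streptavidin fluorescence for reagent binding.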
Take “QVQLVESGGGLVQAGGSLRLSCAASGSIFRSYAMGWYRQAPGKERELVASITWRGGRTYYADSVKGRFTISRDNAKNTVYLQMNSLKPEDSAVYYCNVDVPGVRFEYWGQGTQVTVSS”: the “polyreactivity (PSR sort gate)” value is recorded as “low polyreactivity”.

On to “QVQLVESGGGLVQAGGSLRLSCAASGSIFRSYAMGWYRQAPGKERELVATIDRSGGSTYYADSVKGRFTISRDNAKNTVYLQMNSLKPEDTAVYYCNKTPHFPRPGFNYWGQGTQVTVSS”, for which the “polyreactivity (PSR sort gate)” value is recorded as “low polyreactivity”.

Regarding “QVQLVESGGGLVQAGGSLRLSCAASGSIFRSYAMGWYRQAPGKERELVSAIRGSDGNTYYADSVKGRFTISRDNAKNTVYLQMNSLKPEDTAVYYCNARSYGYRTSRARYNYWGQGTQVTVSS”, the “polyreactivity (PSR sort gate)” value is “high polyreactivity”.

Turning to “QVQLVESGGGLVQAGGSLRLSCAASGSIFRSYAMGWYSQAPGKERELVASISRRGGSTYYADSVKGRFTMSRDHAKNTVYLQMNSLKPEDTAVYYCAAVRYNSRVSTTPSEMYYWGQGTQVTVSS”, the “polyreactivity (PSR sort gate)” value is “low polyreactivity”.

“QVQLVESGGGLVQAGGSLRLSCAASGSIFRTNAMGWYRPAPGKERELVAAITGSGGSTYYADSVKGRFTISRDNAKNTVYLQMNSLKPEDTAVYYCATPVNRERHAEDYWGQGTQVTVSS”: the “polyreactivity (PSR sort gate)” value is on record as “low polyreactivity”.

As for “QVQLVESGGGLVQAGGSLRLSCAASGSIFRTYAMGWYRQAPGKERELVAAISQSGGSTYYADSVKGRFTISRDNAKNTVYLQMNSLKPEDTAVYYCNKYFTRRQSAVSLSPGKFDYWGQGTQVTVSS”, the “polyreactivity (PSR sort gate)” value is “high polyreactivity”.

For the sequence “QVQLVESGGGLVQAGGSLRLSCAASGSIFRTYAMGWYRQAPGKERELVAAITSGGSTYYADSVKGRFTISRDNAKNTVYLQMNSLKPEDTAVYYCAAVRYYRYWYYWGQGTQVTVSS”, the “polyreactivity (PSR sort gate)” value is on record as “high polyreactivity”.

In the case of “QVQLVESGGGLVQAGGSLRLSCAASGSIFRTYSMGGYRQAPGKERELVATITFGGVSTYYADSVKGRFTISRDNAKNTVYLQMNSLKPEDTAVYYCAADVYTRFWRVYRFDYWGQGTQVTVSS”, the “polyreactivity (PSR sort gate)” value is “low polyreactivity”.

Consider “QVQLVESGGGLVQAGGSLRLSCAASGSIFRVYAMGWYRQAPGKEREFLAAITTRGGSTYYADSVKGRFTISRDNAKNTVYLQMNSLKPEDTAVYYCAARGWVSAYYGYDYWGQGTQVTVSS”, for which the “polyreactivity (PSR sort gate)” value is “high polyreactivity”.

Take “QVQLVESGGGLVQAGGSLRLSCAASGSIFRVYAMGWYRQAPGKERELVASMSSDGSTYYADSVKGRFTISRDNAKNTVYLQMNSLKPEDTAVYYEYDWGQGTQVTVSS”: the “polyreactivity (PSR sort gate)” value is reported as “low polyreactivity”.

For “QVQLVESGGGLVQAGGSLRLSCAASGSIFRVYTMGWYIQAPGKERELVAAISRSGGRTYYADSVKGRFTISRDNAKNTVYLQMNSLKPEDTAVYYCAARSSLYRAGYRYNSWGQGTQVTVSS”, the “polyreactivity (PSR sort gate)” value is reported as “high polyreactivity”.

Take “QVQLVESGGGLVQAGGSLRLSCAASGSIFRVYTMGWYRQAPGKERELVAAISRSGGRTYYADSVKGRFTISRDNAKNTVYLQMNSLKPEDTAVYYCNAQYGGQYGYGYWGQGTQVTVSS”: the “polyreactivity (PSR sort gate)” value is recorded as “high polyreactivity”.

With “QVQLVESGGGLVQAGGSLRLSCAASGSIFRWNAMGWYIQAPGKERELVAAIDSGGSTYADSVKGRFTISRDNAKNTVYLQMNSLKPDDTAVYYCAAEIPDEWPYDYWGQGTQVTVSS”, the “polyreactivity (PSR sort gate)” value is listed as “low polyreactivity”.

On to “QVQLVESGGGLVQAGGSLRLSCAASGSIFRWNAMGWYRQSPGKERELLAAIDSGGSTYADSVKGRFTISRYNAKNTVYLQMYSLKPEDTAVYYCAAEIPDEWPYDYWGQGTQVTVSS”, for which the “polyreactivity (PSR sort gate)” value is “low polyreactivity”.

As to “QVQLVESGGGLVQAGGSLRLSCAASGSIFRWYAMGWSRQAPGKEREFVAAITSSGGSTYYADSVKGRFTISRDNAKNTVYLQMNSLKPEDTAVYYCNRRYQPYSYDYWGQGTQVTVSS”, the “polyreactivity (PSR sort gate)” value was “high polyreactivity”.

Regarding “QVQLVESGGGLVQAGGSLRLSCAASGSIFRWYDMGWYRQAPGKERELVAVISKRGGSTYYADSVKGRFTISRDNAKNTVYLQMNSLKPEDTAVYYCAKRYERWQLARLDYWGQGTQVTVSS”, the “polyreactivity (PSR sort gate)” value is reported as “high polyreactivity”.

Take “QVQLVESGGGLVQAGGSLRLSCAASGSIFRYNALGWYRQAPGKEREFVAAITRSGGSTYADSVKGRFTISRDNAKNTVYLQMNSLKPEDTAVYYCAATFKWYSHTKPRFDYWGQGTQVTVSS”: the “polyreactivity (PSR sort gate)” value was “low polyreactivity”.

Consider “QVQLVESGGGLVQAGGSLRLSCAASGSIFRYNAMGRYRQAPGKERELVAAITSNGGSTYYADSVKGRFTISRDNAKNTVYLQMNCQKPEDTAVYYCNAVYTFTRRYGYWGQGTQVTVSS”, for which the “polyreactivity (PSR sort gate)” value is reported as “high polyreactivity”.

“QVQLVESGGGLVQAGGSLRLSCAASGSIFRYNAMGWSRQAPGKEREFVAAISYSGGRTYYADSVKGRFTISRDNAKNTVYLQMNSLNPEDTAVYYCNAQYASGRSYFFYWHRYDYWGQGTQVTVSS”: the “polyreactivity (PSR sort gate)” value is “high polyreactivity”.

“QVQLVESGGGLVQAGGSLRLSCAASGSIFRYNAMGWYRKAPGKERELVAAISYRGGSTYYADSVKGRFTISRDNAKITVYLQINSLKPEDTAVYYCAAAVQYSGYRFNYWGQGTQVTVSS”: the “polyreactivity (PSR sort gate)” value was “high polyreactivity”.

On to “QVQLVESGGGLVQAGGSLRLSCAASGSIFRYNAMGWYRQAPGKERELVAAISASGGRTHYADSVKGRFTISRDNAKNTVYLQMNSLKPEDTAVYYCAAATYRGTSLYGYWGQGTQVTVSS”, for which the “polyreactivity (PSR sort gate)” value is “high polyreactivity”.

“QVQLVESGGGLVQAGGSLRLSCAASGSIFRYNAMGWYRQAPGKERELVAAITSGDSTYYADSVKGRFTISRDNAKNTVYLQMNSLKPEDTAVYYCAVTTWANTQWEDYWGHGTQVTVSS”: the “polyreactivity (PSR sort gate)” value is given as “low polyreactivity”.

For the sequence “QVQLVESGGGLVQAGGSLRLSCAASGSIFRYNTMGWYRQAPGKERELVAAIRGDGSTNYADSVKGRFTISRANAKNTVYLQMNSLKPEDTAVYYCAVTLRGYRYAYDYWGQGTQVTVSS”, the “polyreactivity (PSR sort gate)” value was “low polyreactivity”.

As for “QVQLVESGGGLVQAGGSLRLSCAASGSIFRYNTMGWYRQAPGKERELVASIRIGGSTYYADSVKGRFTISRDNAKNTVYLQMNSLKPEDTAVYYCAVRPYRSAGGSVTRGAYYYWGQGTQVTVSS”, the “polyreactivity (PSR sort gate)” value is “high polyreactivity”.

Consider “QVQLVESGGGLVQAGGSLRLSCAASGSIFRYYAMGWYIQAPGKERELVAGITGSTGRTYYADSVKGRFTISRDNAKNTVYLQMNSLKPEDTAVYYCAARSRYYEYDYWGQGTQVTVSS”, for which the “polyreactivity (PSR sort gate)” value is “low polyreactivity”.

On to “QVQLVESGGGLVQAGGSLRLSCAASGSIFRYYAMGWYRQAPGKDRELVAVITRGGSTYYADSVKGRFTISRDNAKNTVYLQMNSLKPEDTAVYYCAADSWPAGLDRGYWGQGTQVTVSS”, for which the “polyreactivity (PSR sort gate)” value is “low polyreactivity”.

Turning to “QVQLVESGGGLVQAGGSLRLSCAASGSIFRYYAMGWYRQAPGKEREFVAAINTNDAGTYYADSVKGRFTISRDYAKNTVYLQMNSLKPEDTAVYYCAADTGYRFWYDYWGQGTQVTVSS”, the “polyreactivity (PSR sort gate)” value is “high polyreactivity”.

Turning to “QVQLVESGGGLVQAGGSLRLSCAASGSIFRYYAMGWYRQAPGKERELVAAISGDSGRTYYADSVKGRFTISRDNAKNTVYFQMNSLKPEDTAVYYCNARVAYRYRTGYDYWGQGTQVTVSS”, the “polyreactivity (PSR sort gate)” value is “high polyreactivity”.

With “QVQLVESGGGLVQAGGSLRLSCAASGSIFRYYAMGWYRQAPGKERELVAAITASGGRTHYADSVKGRFTISRDNAKNTVYLQLNSLKLEDTAVYYCAADLYYAWYWKQHYDYWGQGTQVTVSS”, the “polyreactivity (PSR sort gate)” value is listed as “high polyreactivity”.

For “QVQLVESGGGLVQAGGSLRLSCAASGSIFRYYAMGWYRQAPGKERELVADITSSGGSTYYADSVKGRFTISRDNAKNTVYLQMNSLKPEDTAVYYCASLYWFYVYPFTEYDYWGQGTQVTVSS”, the “polyreactivity (PSR sort gate)” value was “low polyreactivity”.

“QVQLVESGGGLVQAGGSLRLSCAASGSIFRYYAMGWYRQAPGKERELVARISSGGSTYYADSVKGRFTISRDNAKNTVYLQMNSLKPEDTAVYYCNAGAPARYWWEGDYWGQGTQVTVSS”: the “polyreactivity (PSR sort gate)” value is recorded as “high polyreactivity”.

Take “QVQLVESGGGLVQAGGSLRLSCAASGSIFRYYAMGWYRQAPGKERELVARISWRAGSTYADSVKGRFTISRDNAKNTVYLQMNSLKPEDTAVYYCNADAHKYSWVGTSEYEYWGQGTQVTVSS”: the “polyreactivity (PSR sort gate)” value is recorded as “high polyreactivity”.

For the sequence “QVQLVESGGGLVQAGGSLRLSCAASGSIFRYYAMGWYRQAPGKERELVAVISSGGTRTNYADSVKGRFTISRDTAKNTVYLQMNSLKPEDTAVYYCAAGYLSLYGGGYWGQGTQVTVSS”, the “polyreactivity (PSR sort gate)” value was “high polyreactivity”.

In the case of “QVQLVESGGGLVQAGGSLRLSCAASGSIFRYYAMGWYRQEPGKERELVAAISWDGGTTYYADSVKGRFTISRDNAKNTVYLQMNSLKPEDTGVYYCNVEFPLSSYGYDYWGQGTQVTVSS”, the “polyreactivity (PSR sort gate)” value is reported as “low polyreactivity”.

Turning to “QVQLVESGGGLVQAGGSLRLSCAASGSIFRYYVMGWYRQAPGKERELVATISRSGGRTYYADSVKGRFTISRDYAKNTVYLQMNSLKPEDTAVYYCARTYGGYPTTYDYWGQGTQVTVSS”, the “polyreactivity (PSR sort gate)” value is given as “high polyreactivity”.

As for “QVQLVESGGGLVQAGGSLRLSCAASGSIFSANAMGWYRQAPGKERELVASITGDGSTNYADSVKGRFTISRDNAKNTVYLQMNSLKPEDTAVYYCAADIGSWYDYWGQGTQVTVSS”, the “polyreactivity (PSR sort gate)” value is on record as “low polyreactivity”.

Consider “QVQLVESGGGLVQAGGSLRLSCAASGSIFSAYAMGWYRQAPGKERELVAAISDSGDSTYYADSVKGRFTISRDNAKNTVYLQMNSLKPEDTAVYYCAAESPKWGQGTQVTVSS”, for which the “polyreactivity (PSR sort gate)” value was “low polyreactivity”.

On to “QVQLVESGGGLVQAGGSLRLSCAASGSIFSAYAMGWYRQAPGKERELVAGISKRGGSTYYADSVKGRFTISRDNAKNTVYLQMNSLKPEDTAVYYCNAARYTVVTKLFDYWGQGTQVTVSS”, for which the “polyreactivity (PSR sort gate)” value was “high polyreactivity”.

Take “QVQLVESGGGLVQAGGSLRLSCAASGSIFSAYGMGWYRQAPGKERELVAAITRSGGSTYYADSVKGRFTISRDNAKNTVYLQMNSLKPEDTAVYYCAAKSIIRPYAPRRDDMDYWGQGTQVTVSS”: the “polyreactivity (PSR sort gate)” value is on record as “low polyreactivity”.

Take “QVQLVESGGGLVQAGGSLRLSCAASGSIFSDNAMGWYRPAPGKESELVAAITYSGGRTSYADSVKGRFTISRDNAKNTVYLQMNSLKPEDTAVYYCNAEYYYWNREGDYWGQGTQVTVSS”: the “polyreactivity (PSR sort gate)” value was “low polyreactivity”.

For “QVQLVESGGGLVQAGGSLRLSCAASGSIFSDNAMGWYRQAPGKERDLVAAISWIGDSTDYADSVKGRFTISRDNAKNTVYLQMNSLKPEDTAVYYCAADAKVVSPRYRANDIGMFYWGQGTQVTVSS”, the “polyreactivity (PSR sort gate)” value is “low polyreactivity”.
